{
  "source": "IntAct's records for PubMed 15169888",
  "parents": {"B1": {"name": "Nuclear factor NF-kappa-B p105 subunit (Homo sapiens), P19838-1 (parent)", "chain": "MAEDDPYLGRPEQMFHLDPSLTHTIFNPEVFQPQMALPTDGPYLQILEQPKQRGFRFRYVCEGPSHGGLPGASSEKNKKSYPQVKICNYVGPAKVIVQLVTNGKNIHLHAHSLVGKHCEDGICTVTAGPKDMVVGFANLGILHVTKKKVFETLEARMTEACIRGYNPGLLVHPDLAYLQAEGGGDRQLGDREKELIRQAALQQTKEMDLSVVRLMFTAFLPDSTGSFTRRLEPVVSDAIYDSKAPNASNLKIVRMDRTAGCVTGGEEIYLLCDKVQKDDIQIRFYEEEENGGVWEGFGDFSPTDVHRQFAIVFKTPKYKDINITKPASVFVQLRRKSDLETSEPKPFLYYPEIKDKEEVQRKRQKLMPNFSDSFGGGSGAGAGGGGMFGSGGGGGGTGSTGPGYSFPHYGFPTYGGITFHPGTTKSNAGMKHGTMDTESKKDPEGCDKSDDKNTVNLFGKVIETTEQDQEPSEATVGNGEVTLTYATGTKEESAGVQDNLFLEKAMQLAKRHANALFDYAVTGDVKMLLAVQRHLTAVQDENGDSVLHLAIIHLHSQLVRDLLEVTSGLISDDIINMRNDLYQTPLHLAVITKQEDVVEDLLRAGADLSLLDRLGNSVLHLAAKEGHDKVLSILLKHKKAALLLDHPNGDGLNAIHLAMMSNSLPCLLLLVAAGADVNAQEQKSGRTALHLAVEHDNISLAGCLLLEGDAHVDSTTYDGTTPLHIAAGRGSTRLAALLKAAGADPLVENFEPLYDLDDSWENAGEDEGVVPGTTPLDMATSWQVFDILNGKPYEPEFTSDDLLAQGDMKQLAEDVKLQLYKLLEIPDPDKNWATLAQKLGLGILNNAFRLSPAPSKTLMDNYEVSGGTVRELVEALRQMGYTEAIEVIQAASSPVKTTSQAHSLPLSPASTRQQIDELRDSDSVCDSGVETSFRKLSFTESLTSGASLLTLNKMPHDYGQEGPLEGKI", "partner": "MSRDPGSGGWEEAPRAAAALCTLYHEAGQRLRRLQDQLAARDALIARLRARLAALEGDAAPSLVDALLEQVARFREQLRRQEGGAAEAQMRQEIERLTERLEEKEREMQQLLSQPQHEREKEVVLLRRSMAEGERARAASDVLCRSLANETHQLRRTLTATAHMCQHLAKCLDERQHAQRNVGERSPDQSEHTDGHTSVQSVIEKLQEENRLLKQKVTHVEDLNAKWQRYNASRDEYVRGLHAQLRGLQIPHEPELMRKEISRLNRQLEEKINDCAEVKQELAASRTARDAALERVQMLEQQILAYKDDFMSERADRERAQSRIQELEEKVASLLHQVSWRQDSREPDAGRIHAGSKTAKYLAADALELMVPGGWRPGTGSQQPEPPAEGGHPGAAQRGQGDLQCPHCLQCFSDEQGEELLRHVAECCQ"}},
  "data": [
    {"variants_of": "B1", "settings": "with tnip2_human TNIP2, Q8NFZ5", "values": [
      {"variant": "L841A", "effect of a mutation on the interaction": "disrupting interaction"}
    ]}
  ]
}
